Source: article PMC4902875 (ACS chemical biology, 2016)

Target: the molecule itself
Experiment: crystal structure

B1: BexE (enzyme, Amycolotopsis orientalis sp. vinerea, UniProt D7RFJ3 1-487, looked up)
chain: MDAPVVIAGAGPAGLMLAGELRLAGIGVVVLERLPARTGESRGLGFTARTMEVFDQRGLLRRFGEVQTSDQGHFGGIPVDFGLLDGAHQAAKTIPQSATEAVLEAWAGELGADIRRGHELTGVRDDGDGVAVTVRGPAGEHVLRAGWLVGCDGGRSAVRKAVGFDFPGTAATREMFLADLRGVELEPRMIGESLPGGMVMVGPLPGGVTRIIVCERDAPPRRRTGPPPFHEVADAWKRITGIDISAAEPVWLSAFGDATRQVTEYRRGRVLLAGDAAHVHLPAGGQGMNAGIQDAVNLGWKLAAVVRGTARADLLDTYHGERHPVGVRLLMNTRAQGLLFLNGAEMQPLRDVLAELTGYPDVARHLAAMVSGLEIAYDVGGGSHPWLGRRLPRLELDRGGRPSSTAELLRPARGLLLDFAGNAALRDRAAPWAGRIDVVTARPAAGRVPGATTAVLVRPDGHVAWAAPGTHADLPMALERWFGPAPR
binding result: binds
